From the nanobody polyreactivity screen of Harvey et al. (2022)

Assay: yeast display, Sf9 membrane polyspecificity reagent, FACS + sequencing; frameworks hold sequencing errors
Method in brief: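 Galactose-induced (36–48 hours) yeast carrying a synthetic nanobody display library were exposed to 10% biotinylated, detergent-solubilized Sf9 membrane reagent at 4 °C for 1 hour. FACS followed streptavidin microbead enrichment, using low and high (top ~1%) gates for expression (anti-HA) and reagent binding (streptavidin). Colony PCR, MiSeq 2 × 250 sequencing and CDR-length filtering followed. Labels for polyreactivity reflect the gate of origin.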

## QVQLVESGVGIVQAGGSLRLSCAASGRIFARNAMVWYRHAPGKERELVATIRVGGGSTYYADSVKGRFTISRDNAKNTVYLQMNSLKPEDTAVYYCAVRQLYSYPGDRRGYYWGQGTQVTVSS
  polyreactivity (PSR sort gate): low polyreactivity

## QVQLVESGGGLVQAGGSLRLSCAASGITFYWYTMGWYRQAPGKERELVADIEGDGGSTYYADSVKGRFTISRDNAKNTVYLQMNSLKPEDTAVYYCAAQVWPWGYDYWGQGTQVTVSS
  polyreactivity (PSR sort gate): high polyreactivity

## QVQLVESGGGVVQAGGSLRLSCAASGRTFWRYAMGWYRQAPGKERELVAAITSGGGSTYYADSVKGRFTISRDNAKNTVYLQMNSLKPEDTAVYYCNRAGRGSSFKGDYWGQGTQVTVSS
  polyreactivity (PSR sort gate): high polyreactivity

## QVQLVESGGGLVQAGGILRLSCAASGRIFLYYTMGWYRQAPGKEREFVAAITRSGSSTYYADSVKGRFTISRDNAKNTVYLQMNSLKREDTAVYYCNRVFTWRYGYRYEYWGQGTHVTVSS
  polyreactivity (PSR sort gate): high polyreactivity

## QVQLVESGGGLVQAGGSLRLSCAASGSTFYLNAMGWYRQAPGKERELVATKNSSGSTYNADSVKGRFTISRDNAKNTVYLQMNILKPEDTAVYYCNAYGSDRLSLDDYWGQGTQVTVSS
  polyreactivity (PSR sort gate): low polyreactivity

## QVQLVESGGGLVQSGGSLRLSCAASGRILSYNTMGSYRQAPGKERELVAAISRGGSTYYADSVKGRFTISRDNAKNTVYLQMNSLKPEDTAVYYCNALLPPGSRKYNYWGQGTQVTVSS
  polyreactivity (PSR sort gate): high polyreactivity

## QVQLVESGGGLVQAGGSLRLSCAASGRIFGDYAMGWYRQAPGKERELVADITWSGGSTYYADSVKGRVTISRDNAKHTVYLQMNSLKPEDTAVYYCNADVWFYYTFDYWGQGTQVTVSS
  polyreactivity (PSR sort gate): low polyreactivity

## QVQLVESGGGLVQARGSLRLSCASSGSIFNYYDMGWYRQAPGKERELVAAIDTSGGSTYFADSVKGRFTISRDNAKNTVYLQMNRLKPEDTAVYYCAAEWPYYDKIYDYWGQGTQVTVSS
  polyreactivity (PSR sort gate): low polyreactivity

## QVQLVESGGGLVQAGGSLRLSCAASGFTSWHNDMGRYRQATGKERELVAAIDTGTGTYYADSVKGRFTISRDNAKNTVYLQLYSLKPEDTAVYYCAKDDLLVVRIVWFDYWGLGTQVTVSS
  polyreactivity (PSR sort gate): low polyreactivity

## QVQLVESGGGLVQAGGSLRLSCAASGRTFNGNAMGWYRQAPGKERELVAGISTSDGSTYYADSVKGRFTISRDNAKNTVYLQMNSLKPVDTAVYDCAAYSHHQFSSSEYYYWGQGTQLTVSS
  polyreactivity (PSR sort gate): low polyreactivity

## QVQLVESGGGLVQAGGTISLSCAASGRTYRNNAMGWYRQAPGKEMELVAAISRTGGRTYYADSVKGRFTISRDNAKNPVYLQMNSLKPEDSAVYYCNAAYLVREYDYWGQGTQVTVSS
  polyreactivity (PSR sort gate): high polyreactivity

## QVQLVESGGGLVQAGGSLRLSCAASGFIFGKYAMGWYRQAPGKERELVAAISRSSRTFYADSVKGRFTISRDNAKNTVYLQMNSRKPEDTAVYYCAVKKRAPDGDYWGQGTQVTVSS
  polyreactivity (PSR sort gate): high polyreactivity

## QVQLVESGGGLVQAGGSLRLSCAASGRIFRDYAMGWYRQAPGKERELVAAISLSGGSTYYADSVKGRFTISRDIAKNTVYLQVNSLKPEDTAVYYCAAKYYYGGNGYWGQGTQVNVSS
  polyreactivity (PSR sort gate): low polyreactivity

## QVQLVDSGGGLVQAGGSLRLSCAASGSIFRRNAMGWYRQAPGKERELVAAITRSGSGTSYADSVKGRFTISLDNAKNTVYLQMNSLKPEDTAVYYCNAAYVYGDQARGGYWGQGTQVTVSS
  polyreactivity (PSR sort gate): high polyreactivity

## QVQLVESGGGLVQAGGRLRLSCAASGLNFYLYAMGWYTQAPGKERELVATITSAGRTNSADTVKGRFTISRDNAKNTVYLERNSLKPEYTAVYYCIRDVRFVGPSGFDYWGQGTEVTVSS
  polyreactivity (PSR sort gate): high polyreactivity

## QVQLVESGGGLVQAGGSLRLTCAASGRIFSHNTMGWYRQAPGKERELVAAISGGGGRTYYADSVKGRFTISRDNAKNTVYLQMKSLKPEDTAVYYCAAVRVSYRSLSKSYYWGQGTQVTVSS
  polyreactivity (PSR sort gate): high polyreactivity

## QVQLVESGGGLVQAGGSLRLSCAASGRIFRPNAMGWYRQAPGKERELVAAITSNGGRTYYADSVKGRFTISRDNAKNTVYLQMNSLKPEDTAVYYCNAAPFRSGYGYWGQGTQVTVSS
  polyreactivity (PSR sort gate): high polyreactivity

## QVQLVESGGGLVQAGGSLRLSCAASGFTFVKYAMGWYRQAPGKERELVAAISRSGGRTYYADSVKGRFTISLDNAKNTVYLQMNSLKPEDTAVYYCAADVATTHELDYWGQGTQVTVSS
  polyreactivity (PSR sort gate): high polyreactivity

## QVQLVESGGALVQAGGSLRLSCAASGFTFPPSARGWYRQAPGKERELVARITWSGDRTYYADSVKGRFTISRDNAKNTVYLQMNSLKPEDTAVYYCAARRLPRKERKLYYWGQGTQVTVSS
  polyreactivity (PSR sort gate): high polyreactivity

## QVQLVDSGGGLVQAGGSLRLSCAASGFTFRDYAMGWYRQAPRKERELVAAISRSGDSTYYADSVKGRFTISRDNAKNTVYLQMNSLKPEDTAVYYCNTAGFYWLHYTMDYWGQGTQVTVSS
  polyreactivity (PSR sort gate): high polyreactivity

## QVQLVESGGGLVQAGGSLRLSCAASGSPSYFNVKGWYRQAPGKERQLVAAISWSGGSTYADSVKGRFTISRDNAKNTVYLQMNSLKREDTAFYYCNKDYGYVQLRFYCPGYYWGQGTQVTVSS
  polyreactivity (PSR sort gate): low polyreactivity

## QVQLVESGGGLVQAGGSLRLSCAASGSIFYGYAMGWSRQAPGKERELVAVITDGGGSTYYADSVKGRFTISRDNAKNTVYLQMNSLKPEDTAVYYCAADSWGPYYYSSYSYDYWGQGTQVTVSS
  polyreactivity (PSR sort gate): low polyreactivity

## QVQLVESGGGLVQAGGSLRLSCAASGITFWKYAMGWYRQAPGKERELVAAISGRGGSTYYADSVKGRFTISRDNAKNTVYLQMNSLKPEDTAVYSCDTRTYYRYPVFYWGQGTQVTVSS
  polyreactivity (PSR sort gate): high polyreactivity

## QVQLVESGGGLVQAGGSLRLSCAASGSTFVDNAMGWYRQAPGKERELVADISSGGSTYYADSVKGRFTISRDNAKNTVYLQMNSLKPEDTAVYYCAARRITSTDEYYWGQGTQVTVSS
  polyreactivity (PSR sort gate): high polyreactivity

## QVQLVESGGGLVQAGGSLRLSCAASGRSFSYNAMGWYRQAPGKERELVASISGNGGRTYYADSVKGRFTISRDNAKNTVYLQMNSLKPEDTAVYYCAARYYSWGGVQYDYWGQGTQVTVSS
  polyreactivity (PSR sort gate): high polyreactivity

## QVQLVESGGGLVQAGGSLRLSCAASGSIFNNNAMGWYRQAPGKERELVADITASGGNTNYADSVKGRFTISRDNAKNTVYLQMNSLKPEDTAVYYCNAGGFYGTLFFPLDIYYVGYDYWGQGTQVTVSS
  polyreactivity (PSR sort gate): low polyreactivity

## QVQLVESGGGVVQAGGSLRLSCAASGRIFHDYAMGWYRQAPGKERELVAGMTSGVRTYYADSVKGRFTISRDNEKNTVYLQMNSLKPEDTAVYYCARRLSPLYDYDYWGQGTQVTVSP
  polyreactivity (PSR sort gate): low polyreactivity

## QVQLVESGGGLVQAGGSLRLSCAASGRTFTSNAMGWYRQAPGKERELVAAISNRGTRTYYADSVKGRFTISRDNAKNTVYLQMNSLKPEDTAVYYCAARVSTVFKRYYYWGQGTQVTVSS
  polyreactivity (PSR sort gate): high polyreactivity

## PVQLVESGGGLVQAGGSLRLSCAASGRTFLVYSMGWYRQAPGKERELVAAISNGGSTNYADSVKGRFTISRDNAKKTVYLQMNSLKPEDTALYDCATRIHKWYYYWGQGTQVTVSS
  polyreactivity (PSR sort gate): high polyreactivity

## QVQLVESGGGLVQAGGSLRLSCAASGSIFCYNTMGWYRQAPGKERELVAAITFSGGSTYYADSVKGRFTISRDNAKNTVYLKMNSLKPEDTAVYYCAAVFYSAVGYYYWGQGTQVTVSS
  polyreactivity (PSR sort gate): low polyreactivity

## QEKHVESGGGLVQAGGSLLLSCAASGLTFYHNAMGWYRQAPGKERELVAAISSGGTTNYADSVKGRFTISRDNAKNTVYLQMNSLTPEDTAVYYCAARGWGPTRAYDYWGQGTQVTLSS
  polyreactivity (PSR sort gate): high polyreactivity

## QVQLVESGGGLVQAGGSLRLSCAASGSIYSNAMGWYRQAPGKERELVAAISWRDGRTYYADSVKGRFTISRDNAKNTVYLQMNSLKPEDTAVYYCNADSRPLSTYYYWGQGTQVTVSS
  polyreactivity (PSR sort gate): low polyreactivity

## QVQLVESGGGLVQAGGSLRLSCAASGRIFSRNAMGWYRQAPGKERELVAAISRTGGSTYYADSVKGRFTISRDNAKNTVYLQMNSLKPEDTAVYYCADAYYRKSSYGQIVEYDYWGQGTQVTVSS
  polyreactivity (PSR sort gate): high polyreactivity

## QVQLVESGRGLVLAGGSLRLSCAASGRIFRVNAMGWYRQAPGKERELVAAISRGGNTYYADSVKGRFTISRDNEKNTVSLQMNSLKPEDTAVYYCAASRSWPRMDYWGQGTQVSVSS
  polyreactivity (PSR sort gate): high polyreactivity

## QVQLVESGGGLVQAGGSLRLSCAASRRTFIANAMGWYRQAPGNGREWVAVITLNGGSTYYADSVKRRFTLSRDNAKNTVYLQMNSLKPEDTAVYYCAADVYWDYYWGQGTQVTVSS
  polyreactivity (PSR sort gate): low polyreactivity

## QVQLVESGGGLVQAGGSLRLSCAASGFTFPFYTMGWYRQAPGKERELVAAISRGGSTNYADSVKGRFTISRDNAKNTVYLQMNSLKPEDTAVSYCNKRYYRDLIGYYWGQGTQVTVSS
  polyreactivity (PSR sort gate): high polyreactivity

## QVQLVESGGGLVQAGGSLRLSCAASGSTFPVNAMGWYRQAPGKERELVATIRWTGGGTYYADSVKGRFTISRDNAKNTVYLQMNSLKPEDTAVYYCAADPPWEWSDYGYDYWGQGTQVTVSS
  polyreactivity (PSR sort gate): low polyreactivity

## QVQLVESGGGLVQAGGSLRLSCAASGSIVNYYAMGWYRQAPGKERELVAAITWSGGRTYSADSVKGRFTSSRDNAKNTVYLQMNSLKPEDTAVYYCATAPVRIRDILFSPRMDYWGLGTQVTVSS
  polyreactivity (PSR sort gate): low polyreactivity

## QVQLVESGGGLDQAGGSLRLSCAASGRNFTRYAMGWYRQAPGKERELVAVITRSGGSTYYADSVKGRFTISRDNAKNTVYLQMNSVKPEDTAVYYCDAKYYGEMYYWGQRTQVTVSS
  polyreactivity (PSR sort gate): low polyreactivity

## QVQLVESGGGLVQAGGSLRLSCAASGRIYYQYAMGWYRQAPGKERELVAAITRGGNTYYADSVKGRFTISRDNAKNTVYLQMNSLKPEDTAVYYCNARWHTTGYRYDYWGQGTQVTVSS
  polyreactivity (PSR sort gate): high polyreactivity

## QVQLVESGGGLVQAGGSLRLSCAASGRIFTYNAMGWYRQAPGKEWELVAVISRRGGSTYYADSVKGRFTISRDNAKNSVYLQINSLKPDDTAVYYWAADLPSYPYEFWGQGTQVTVSS
  polyreactivity (PSR sort gate): low polyreactivity

## QVQLVESGGGLVQAGGSLRLSCAASGSIFDWNAMGWYRKAPGKERELVASITGSGGGTNYADSVKGRFTISRDNAKNTVYLQMNSLKPEDTAVYYCAAEVDYSYWPEYARKYYYWGQGTQVTVSS
  polyreactivity (PSR sort gate): low polyreactivity

## QLQLVESGGGLVQAGGSLRLSCAASGRTFRLNGMGWYRQAPGKERELVAAITWSGGRTYYADSVKGRFTISRDNAKNTVYLQMNSLNPEDTAVYYCAAGKSSYGKPKYYYWGQGTQVTVSS
  polyreactivity (PSR sort gate): high polyreactivity
